Results published in article PMC9897667, “Identification of procathepsin L (pCTS-L)–neutralizing monoclonal antibodies to treat potentially lethal sepsis” (Science Advances, 2023).

Assays:
Conditions in all cases: both partners purified
[1] = target: T1, extracellular domain of human RAGE (residues 1 to 344) (human, UniProt Q15109 23-344); assay: SPR; OpenSPR (Nicoya); TLR4 (residues 1 to 631) or RAGE extracellular domain (residues 1 to 344) immobilised on NTA sensor chip; pCTS-L applied as analyte at different concentrations; representative Kd
T1 construct: signal peptide in the construct; receptor for advanced glycation end products, human, extracellular domain, residues 1 to 344; also called receptor for advanced glycation end products; recombinant RAGE; source: bought: Sino Biological Inc
T1 sequence (Q15109 23-344): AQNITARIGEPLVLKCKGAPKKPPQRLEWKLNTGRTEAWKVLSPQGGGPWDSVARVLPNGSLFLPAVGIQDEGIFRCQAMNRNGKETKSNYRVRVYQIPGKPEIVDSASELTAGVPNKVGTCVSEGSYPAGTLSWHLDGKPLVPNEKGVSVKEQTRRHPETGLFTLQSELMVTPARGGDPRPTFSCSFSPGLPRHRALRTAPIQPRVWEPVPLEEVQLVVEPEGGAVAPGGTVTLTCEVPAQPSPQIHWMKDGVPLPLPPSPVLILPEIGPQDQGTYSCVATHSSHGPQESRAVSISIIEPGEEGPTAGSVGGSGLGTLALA

[2] = target: T2, human TLR4 (ECD-His Tag, residues 1 to 631) (human, UniProt O00206 24-631); assay: as above
T2 construct: signal peptide in the construct; Toll-like receptor 4, human, extracellular domain, residues 1 to 631; also called Toll-like receptor 4; recombinant TLR4; source: bought: Sino Biological Inc
T2 sequence (O00206 24-631): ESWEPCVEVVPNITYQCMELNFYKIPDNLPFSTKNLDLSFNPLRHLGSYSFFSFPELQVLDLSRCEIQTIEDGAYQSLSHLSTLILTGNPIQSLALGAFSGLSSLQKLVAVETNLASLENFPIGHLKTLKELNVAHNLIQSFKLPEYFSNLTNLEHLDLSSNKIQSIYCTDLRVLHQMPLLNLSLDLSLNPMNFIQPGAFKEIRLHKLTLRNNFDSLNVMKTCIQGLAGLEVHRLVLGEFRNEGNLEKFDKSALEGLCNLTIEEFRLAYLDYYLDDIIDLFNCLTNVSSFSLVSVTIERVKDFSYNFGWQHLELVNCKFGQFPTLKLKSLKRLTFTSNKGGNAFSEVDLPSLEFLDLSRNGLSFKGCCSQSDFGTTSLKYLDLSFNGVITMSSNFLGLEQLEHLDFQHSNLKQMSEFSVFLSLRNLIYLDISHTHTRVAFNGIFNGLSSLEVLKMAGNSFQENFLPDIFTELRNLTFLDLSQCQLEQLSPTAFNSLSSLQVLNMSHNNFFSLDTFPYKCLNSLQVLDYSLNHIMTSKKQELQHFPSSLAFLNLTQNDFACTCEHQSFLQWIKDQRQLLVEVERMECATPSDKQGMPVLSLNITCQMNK

[3] = target: T1, extracellular domain of human RAGE …; assay: SPR; OpenSPR, series of Fig. 10A; pCTS-L immobilised on NTA sensor chip; TLR4 or RAGE as analyte; reference values without mAb20 (not told whether with c-mAb preincubated or with no antibody)
[4] = target: T2, human TLR4 (ECD-His Tag, residues 1 to …); assay: as above
[5] = target: T1, extracellular domain of human RAGE …; assay: SPR; OpenSPR (Nicoya); human pCTS-L immobilised on NTA sensor chip; human TLR4 or RAGE applied as analyte at various concentrations; Kd estimated with TraceDrawer
[6] = target: T2, human TLR4 (ECD-His Tag, residues 1 to …); assay: as above

B1: recombinant human procathepsin L (pCTS-L) (natural protein, UniProt P07711 18-333, looked up)
chain: TLTFDHSLEAQWTKWKAMHNRLYGMNEEGWRRAVWEKNMKMIELHNQEYREGKHSFTMAMNAFGDMTSEEFRQVMNGFQNRKPRKGKVFQEPLFYEAPRSVDWREKGYVTPVKNQGQCGSCWAFSATGALEGQMFRKTGRLISLSEQNLVDCSGPQGNEGCNGGLMDYAFQYVQDNGGLDSEESYPYEATEESCKYNPKYSVANDTGFVDIPKQEKALMKAVATVGPISVAIDAGHESFLFYKEGIYFEPDCSSEDMDHGVLVVGYGFESTESDNNKYWLVKNSWGEEWGMGGYVKMAKDRRNHCGIASAASYPTV
notes: procathepsin L (pCTS-L), human, recombinant; A HEK293-made pCTS-L is named only for stimulating PBMCs; also called proCTS-L; human pCTS-L; source: recombinant, highly purified
Kd [1]: 3 nM
Kd [2]: 64.4 nM
Kd [3]: 3.1 ± 0.4 nM
Kd [4]: 20.3 ± 2.3 nM
Kd [5]: 3.5 nM
Kd [6]: 20.2 nM
